Our source for the Kd values is patent publication US20250090663A1 (published 2025).

Common to all, as to assay: SPR (Carterra); apparent Kd
Assay [1] deals with T1, CD70 (antigen of the Carterra KD analysis) (UniProt P32970 39-193).
T1 chain: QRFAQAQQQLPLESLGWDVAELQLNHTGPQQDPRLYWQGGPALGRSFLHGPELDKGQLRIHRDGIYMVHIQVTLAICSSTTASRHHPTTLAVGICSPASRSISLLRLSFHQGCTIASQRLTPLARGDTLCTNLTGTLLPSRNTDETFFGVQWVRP

Assay [2] concerns the target Positive Control (8G1).
Assay [3] deals with Positive Control (27B3).
The target in assay [4] is Positive Control (1C8).

B1: H1-Fc (anti-CD70 VHH-Fc fusion polypeptide) (Fc fusion)
chain: QVQLQESGGGLVQAGGSLRLSCAAPRSIFSINAMGWYRQAPGKQRELVAAITSGGSPTYADSVKGRFTISRDNAKNTVYLQMNSLKAEDTAVYYCATGPYGLDNALDAWGQGTQVTVSS
For the molecule B1, the Kd in assay [1] was determined as 2.73 nM.

B2: CD70 (ligand)
chain: QRFAQAQQQLPLESLGWDVAELQLNHTGPQQDPRLYWQGGPALGRSFLHGPELDKGQLRIHRDGIYMVHIQVTLAICSSTTASRHHPTTLAVGICSPASRSISLLRLSFHQGCTIASQRLTPLARGDTLCTNLTGTLLPSRNTDETFFGVQWVRP
Turning to B2, the values for the Kd in assay [2], in assay [3] and in assay [4] were 2.19 nM, 0.634 nM and 0.652 nM, respectively.

B3: C1-Fc (anti-CD70 VHH-Fc fusion polypeptide) (Fc fusion)
chain: QVQLQESGGGLVQTGGSLRLACTASGFTFDDYAIAWFRQAPGKEREFVAAISWSGGTTHYADSVKGRFTISRDNAKNTLYLQMSSLKPEDTAVYFCAKSLRSSPSSRWFGSRGQGTQVTVSS
Turning to B3, in assay [1], the Kd came to 23.4 nM.
